Patent US20220324953A1 (JIANGSU HENGRUI MEDICINE, published 2022)
Where a chain is given by its changes, count along the chain named. Each block holds one binder with its values, some of them ahead of it.

Target: T1, mouse CTGF (antigen of the Biacore assay) (mouse, UniProt P29268 26-348)
T1 construct: also called mouse CTGF protein
T1 sequence (looked up): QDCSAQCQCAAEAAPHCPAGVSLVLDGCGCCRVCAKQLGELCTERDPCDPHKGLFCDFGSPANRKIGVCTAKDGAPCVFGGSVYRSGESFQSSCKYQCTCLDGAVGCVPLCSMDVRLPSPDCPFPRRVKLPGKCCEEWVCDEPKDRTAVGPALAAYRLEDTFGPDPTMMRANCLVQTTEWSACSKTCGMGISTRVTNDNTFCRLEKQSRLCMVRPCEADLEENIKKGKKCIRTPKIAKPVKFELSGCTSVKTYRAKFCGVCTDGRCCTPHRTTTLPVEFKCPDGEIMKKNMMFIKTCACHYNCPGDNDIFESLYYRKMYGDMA
Assay: Biacore, antibody captured on Protein A, mouse CTGF in flow, 1:1 fit
Text: A certain amount of each of the test antibodies was affinity-captured with Protein A biosensor chip (Cat. # 29127556, GE), and then a certain concentration of human or mouse CTGF was allowed to flow through the surface of the chip. The reaction signals were detected in real time with Biacore instrument to generate a binding and dissociation curve. After the dissociation was completed in each cycle, the biosensor chip was washed and regenerated with Glycine-HCl regeneration solution pH 1.5 (Cat. # BR-1003-54, GE). The running buffer for the assay was 1×HBS-EP buffer solution (Cat. # BR-1001-88, GE).

B1: Hu164-77wl (antibody, human IgG1, lambda, V domains shown)
VH: EVQLQESGPGLVKPSQTLSLTCTVSGFSISTFGVHWIRQHPGKGLEWIGVIWRRGGTDYNAAFMSRVTISKDTSKNQVSLKLSSVTAADTAVYYCARDGGFDYWGQGTTVTVSS
VL: ETVVTQEPSLTVSPGGTVTLTCRSSIGAVTTSNYANWVQQKPGQAFRGLIGGTSNRAPWTPARFSGSLLGGKAALTLSGVQPEDEAEYYCALWYSTHYVFGGGTKLTVLG
Kd: 0.148 nM
koff: 0.00883 s⁻¹
kon: 5.98e+07 M⁻¹ s⁻¹

B5: Hu147-11wk (antibody, human IgG1, kappa, V domains shown)
VH: EVQLVESGGGLVQPGGSLRLSCAASGFTFSTYAMNWVRQAPGKGLEWVGRIRTKSNNYATYYADSVKDRFTISRDDSKNSLYLQMNSLKTEDTAVYYCVETGFAYWDQGTLVTVSS
VL: EIVLTQSPATLSLSPGERATLSCSASSSVSYMHWFQQKPGQSPRLLIYSTSNLASGIPARFSGSGSGTDYTLTISSLEPEDFAVYYCQQRSSYPLTFGQGTKLEIKR
Kd: 3.11 nM
koff: 0.374 s⁻¹
kon: 1.2e+08 M⁻¹ s⁻¹

B6: Hu147-12wk (antibody, human IgG1, kappa, V domains shown)
VH: B5 VH
VL: B5 VL with R44K
Kd: 3.09 nM
koff: 0.116 s⁻¹
kon: 3.75e+07 M⁻¹ s⁻¹

B7: Hu147-32wk (antibody, human IgG1, kappa, V domains shown)
VH: B5 VH with T28S, S30N, G49A, K78E, N79S
VL: B5 VL with R44K
Kd: 2.49 nM
koff: 0.343 s⁻¹
kon: 1.37e+08 M⁻¹ s⁻¹

B8: Hu147-13wk (antibody, human IgG1, kappa, V domains shown)
VH: B5 VH
VL: B5 VL with R44K, L46W, I57V
Kd: 2.55 nM
koff: 0.146 s⁻¹
kon: 5.73e+07 M⁻¹ s⁻¹

B9: Hu147-31wk (antibody, human IgG1, kappa, V domains shown)
VH: B5 VH with T28S, S30N, G49A, K78E, N79S
VL: B5 VL
Kd: 2.79 nM
koff: 0.107 s⁻¹
kon: 3.83e+07 M⁻¹ s⁻¹

B11: Hu147-23wk (antibody, human IgG1, kappa, V domains shown)
VH: B5 VH with S30N, G49A
VL: B5 VL with R44K, L46W, I57V
Kd: 2.12 nM
koff: 0.173 s⁻¹
kon: 8.18e+07 M⁻¹ s⁻¹

B12: Hu164-67wl (antibody, human IgG1, lambda)
heavy: not shown
light: ETVVTQEPSLTVSPGGTVTLTCRSSIGAVTTSNYANWVQQKPGQAFRGLIGGTSNRAPWTPARFSGSLLGGKAALTLSGVQPEDEAEYYCALWYSTHYVFGGGTKLTVLGQPKANPTVTLFPPSSEELQANKATLVCLISDFYPGAVTVAWKADGSPVKAGVETTKPSKQSNNKYAASSYLSLTPEQWKSHRSYSCQVTHEGSTVEKTVAPTEC
Kd: 0.0184 nM
koff: 0.00117 s⁻¹
kon: 6.36e+07 M⁻¹ s⁻¹

Next, values leading:

Kd: 0.084 nM
koff: 0.0044 s⁻¹
kon: 5.24e+07 M⁻¹ s⁻¹
B2: Hu164-87wl (antibody, human IgG1, lambda, V domains shown)
VH: B1 VH with I48L, V67L, L80F
VL: B1 VL

Kd: 0.133 nM
koff: 0.0076 s⁻¹
kon: 5.7e+07 M⁻¹ s⁻¹
B3: Hu164-68wl (antibody, human IgG1, lambda, V domains shown)
VH: EVTLKESGPVLVKPTETLTLTCTVSGFSLSTFGVHWIRQPPGKGLEWLGVIWRRGGTDYNAAFMSRLTISKDTSKSQVVFTMTNMDPVDTATYYCARDGGFDYWGQGTTVTVSS
VL: ETVVTQEPSFSVSPGGTVTLTCRSSIGAVTTSNYANWVQQTPGQAFRGLIGGTSNRAPGVPDRFSGSILGNKAALTITGAQADDESDYYCALWYSTHYVFGGGTKLTVLG

Kd: 0.126 nM
koff: 0.00774 s⁻¹
kon: 6.17e+07 M⁻¹ s⁻¹
B4: Hu164-69wl (antibody, human IgG1, lambda, V domains shown)
VH: B3 VH
VL: ESVVTQPPSVSGAPGQRVTISCRSSIGAVTTSNYANWVQQLPGTAFKGLIGGTSNRAPGVPDRFSGSKSGTSASLAITGLQAEDEADYYCALWYSTHYVFGGGTKLTVLG

Kd: 1.93 nM
koff: 0.174 s⁻¹
kon: 9.01e+07 M⁻¹ s⁻¹
B10: Hu147-33wk (antibody, human IgG1, kappa, V domains shown)
VH: B5 VH with T28S, S30N, G49A, K78E, N79S
VL: B5 VL with R44K, L46W, I57V

Kd: 0.0322 nM
koff: 0.00237 s⁻¹
kon: 7.35e+07 M⁻¹ s⁻¹
B13: Hu164-57wl (antibody, human IgG1, lambda, V domains shown)
VH: B3 VH with G44A, G49A, F80L
VL: B1 VL
